Data taken from patent US11191841B2, “Supramolecular modification of proteins” (Massachusetts Institute of Technology, priority 2015, dated 2021).

What was measured:
[1] = Glucagon stability assessment (solubility, circular dichroism); assay type: physicochemical
Method: Human recombinant glucagon (Sigma) was dissolved at 4 mg/ml in PBS containing 1 mM HCl. This was mixed 1:1 with 1 equivalent of CB[7]-PEG10k in PBS, or in PBS alone, for a final glucagon concentration of 2 mg/ml. Vials were left to age at room temperature for various times. Circular dichroism was performed on samples without dilution, as well as on freshly dissolved glucagon, by utilizing a […] cuvette.

[2] = general statement, glucagon alone; cited from earlier work
[3] = biological target: native insulin (Homo sapiens, UniProt P01308); test: Acridine orange competitive binding assay; settings: AO 8 μM, CB[7] or PEG-T-CB[7] 6 μM, insulin 0-15 μM, in water; one-site competitive binding model; read-out: KD (binding constant toward insulin)
Method: To confirm binding of PEG-T-CB[7] to native insulin, a competitive binding assay was performed using acridine orange (AO) (FIG. 2D). In this assay, the fluorescent emission spectrum of AO is collected. The fluorescence intensity of AO increases when in complex with CB[7] relative to its emission when free in solution. As insulin is added, the CB[7]*AO complex dissociates as a result of stronger binding affinity of the B1 Phenylalanine residue to the CB[7], resulting in a reduction to the measured fluorescence intensity of AO.
Binding of PEG-T-CB[7] conjugates to insulin was assessed using the acridine orange dye displacement assay, in accordance with a previously described protocol. See, e.g., Chinai et al. Journal of the American Chemical Society 2011, 133(23): 8810-8813 Briefly, 6 μM of either unmodified CB[7] or the PEG-T-CB[7] conjugates and 8 μM acridine orange were combined with recombinant insulin (0, 1, 2, 4, 6, 8, 10, 12.5, 15 μM) in H2O. Samples were incubated overnight in light-free conditions and fluorescent spectra were collected on an Infinite® M1000 plate reader (Tecan Group, Ltd.), exciting at 485 nm and collecting the resulting fluorescent spectra from 495-650 nm. […]

[4] = reported previously (Shaikh et al. 2008); used for fitting; cited from earlier work
[5] = Insulin aggregation assay (transmittance at 540 nm); assay type: physicochemical; settings: insulin 1 mg/mL, pH 7.4, 37° C., continuous agitation
Method: Insulin is well known to form fibrillar aggregates in physiologic conditions. To determine whether PEG-T-CB[7] can stabilize insulin and prevent its aggregation, assays were performed in physiologic salt concentrations at pH 7.4 and 37° C. with continuous agitation to determine the kinetics of insulin aggregation in a solution of 1 mg/mL protein (FIG. 3A). Specifically, transmittance was measured at 540 nm, a wavelength where both insulin and the PEG-T-CB[7] have negligible absorbance in order to detect the formation of aggregates, which scatter light, in solution over time. […] After the initial 100 h study, data were collected once daily to determine the duration of stability for each PEG-T-CB[7]/insulin formulation (FIG. 3B).
Recombinant human insulin was dissolved at 4 mg/ml in 2 mM HCl with 150 mM NaCl. […] The plate was immediately placed into an Infinite® M1000 plate reader (Tecan Group, Ltd.) and shaken continuously at 37° C. Absorbance readings at 540 nm were collected every 6 minutes for 100 hours, and absorbance values were subsequently converted to transmittance. […] Following the 100-hour kinetic study, the plate was maintained under continuous agitation at 37° C. and absorbance at 540 nm was monitored daily to approximate tA for the PEG-T-CB[7] conjugates.

[6] = system: STZ-induced diabetic mice; test: In vivo blood glucose in STZ diabetic mice; design: species or system mouse; settings: insulin 1 IU/kg s.c., alone or with 5 molar equivalents host; normoglycemia <200 mg/dL; 6-hour study
Method: A mouse model of insulin-deficient diabetes, prepared using streptozotocin to induce pancreatic ß-cell death, was used to evaluate the function of PEG-T-CB[7] conjugates in vivo (FIG. 4A). Following the onset of diabetes, mice were fasted overnight to ensure an average starting blood glucose level of approximately 450 mg/dL. See, e.g., Like et al. Science 1976, 193(4251): 415-417. Insulin was then administered subcutaneously at a dose of 1 IU/kg in a saline vehicle. Alternatively, an identical dose of insulin was administered along with CB [7], PEG5k-T-CB[7], PEG10k-T-CB [7], or PEG30k-T-CB [7]. All insulin formulations reduced average blood glucose to a normoglycemic level (<200 mg/dL for a mouse) following a single subcutaneous administration. Animals that received either native insulin or insulin formulated with unmodified CB[7] became hyperglycemic again approximately 2 hours following administration. […]
Male C57BL/6J, age 8 weeks, were purchased the Jackson Laboratory. […] Mice were allowed to eat ad libitum and glucose levels were monitored by peripheral tail vein bleeds using a portable glucose meter (Accu-Chek Aviva, Roche) daily until unfasted glucose levels >400 mg/dL. […] Blood glucose readings were collected every 30 minutes using a handheld glucose meter for 6 hours following insulin injection.

Glucagon: Human recombinant glucagon (Sigma)
glucagon conformation by circular dichroism after aging ([1]; aged for 24 hours at room temperature, 2 mg/ml): no appreciable glucagon in solution
glucagon solubility when dissolved alone ([1]; glucagon 2 mg/ml in PBS alone): readily precipitates from solution
typical duration of aqueous solubility of glucagon [2]: less than one hour

cucurbit[7]uril [CB[7]]
Kd [3]: 2300 ± 200 nM
CB[7]•AO equilibrium constant Keq [4]: 200000 M⁻¹

native insulin: Recombinant human insulin, unmodified; aged or fresh as stated
aggregation time (tA), time after which a 10% reduction in transmittance is observed ([5]; alone or with 1 equivalent host, physiologic salt): 13.6 ± 0.2 h
insulin aggregation in 100 hours of kinetic study ([5]; 100 h): Rapid aggregation
duration of normoglycemia following administration (time until hyperglycemic again) [6]: approximately 2 hours
